From patent publication US20250042992A1 (University of California, published 2025) come the findings set out here.

Assay [1] concerns the target human DLK1 endogenously expressed on COR-L279 small cell lung carcinoma cells (human) (UniProt P80370). Put plainly: KinExA on cells, row CORL-279 cells(adherent). (In general: Kinetic exclusion samples the free partner from a solution-phase mixture.)
Assay [2] deals with human DLK1-overexpressed on surface of HEK293T cells or DLK1-positive COR-L279 cells. Briefly: affinity on cells (HEK293T overexpressing human DLK1 or COR-L279); method not stated in the sentence (KinExA is named for FIG. 11).
Assay [3] has as its target T1, rat DLK1 fused to mGFP, overexpressed on HEK293T cells (rat, UniProt O70534 24-383).
T1 construct: whole, on cells; not shown: mGFP fluorescent protein fused to DLK1
T1 sequence (looked up): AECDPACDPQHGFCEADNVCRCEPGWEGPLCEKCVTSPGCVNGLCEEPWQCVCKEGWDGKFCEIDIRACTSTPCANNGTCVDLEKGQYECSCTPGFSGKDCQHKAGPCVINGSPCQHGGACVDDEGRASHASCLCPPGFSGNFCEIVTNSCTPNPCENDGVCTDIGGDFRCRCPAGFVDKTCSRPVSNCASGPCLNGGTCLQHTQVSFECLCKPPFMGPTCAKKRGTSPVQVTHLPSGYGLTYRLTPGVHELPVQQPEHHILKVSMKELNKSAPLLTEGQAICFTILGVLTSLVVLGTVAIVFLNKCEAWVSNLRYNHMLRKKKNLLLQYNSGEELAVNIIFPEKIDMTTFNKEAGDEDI
Briefly: KinExA on HEK293T DLK1mGFP Rat mass pop cells detached by Versene; Error% 3.17; 95% CI 1.82nM - 13.53nM; equilibrium curves 400pM, 50nM.

Assay [4] has as its target T2, mouse DLK1 fused to mGFP, overexpressed on HEK293T cells (mouse, UniProt Q09163 24-385).
T2 construct: not shown: mGFP fluorescent protein fused to DLK1
T2 sequence: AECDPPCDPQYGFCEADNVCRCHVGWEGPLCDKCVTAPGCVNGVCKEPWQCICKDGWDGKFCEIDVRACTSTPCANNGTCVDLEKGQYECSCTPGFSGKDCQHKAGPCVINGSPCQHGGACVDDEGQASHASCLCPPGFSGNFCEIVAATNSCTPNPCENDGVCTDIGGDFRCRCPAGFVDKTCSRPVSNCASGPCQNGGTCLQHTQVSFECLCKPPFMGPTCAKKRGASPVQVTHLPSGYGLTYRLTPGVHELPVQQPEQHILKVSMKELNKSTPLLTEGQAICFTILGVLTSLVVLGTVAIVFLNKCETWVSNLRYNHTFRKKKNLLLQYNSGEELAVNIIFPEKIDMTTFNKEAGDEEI
Put plainly: KinExA on HEK293T DLK1mGFP Mouse mass pop cells detached by Versene; Error% 3.08; 95% CI 4.21nM - 26.32nM; equilibrium curves 400pM, 50nM.

Assay [5] deals with T3, human DLK1 short form (isoform 2, DLK1-MB) fused to mGFP, expressed on HEK293T cells (human, UniProt P80370 24-383).
T3 sequence: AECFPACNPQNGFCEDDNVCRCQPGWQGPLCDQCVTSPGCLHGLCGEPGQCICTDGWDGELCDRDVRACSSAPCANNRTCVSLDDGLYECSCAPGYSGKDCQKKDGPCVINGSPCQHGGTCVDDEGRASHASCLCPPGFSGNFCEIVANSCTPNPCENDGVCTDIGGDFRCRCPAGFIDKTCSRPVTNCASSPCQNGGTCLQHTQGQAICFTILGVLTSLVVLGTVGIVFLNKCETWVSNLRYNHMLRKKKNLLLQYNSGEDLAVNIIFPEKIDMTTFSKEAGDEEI
Briefly: cell-based or functional assay.

Assay [6] has as its target T2, mouse DLK1 fused to mGFP, overexpressed …. Briefly: flow cytometry, row HEK293T Mouse DLK1mGFP mass.
In assay [7] the target is T4, DLK1 ECD-mFc long form (human DLK1-FL, isoform 1) (human, UniProt P80370 24-303).
T4 construct: also called long form of the human DLK1 protein (ELISA coat); not shown: mFc (monomeric immunoglobulin Fc domain)
T4 sequence: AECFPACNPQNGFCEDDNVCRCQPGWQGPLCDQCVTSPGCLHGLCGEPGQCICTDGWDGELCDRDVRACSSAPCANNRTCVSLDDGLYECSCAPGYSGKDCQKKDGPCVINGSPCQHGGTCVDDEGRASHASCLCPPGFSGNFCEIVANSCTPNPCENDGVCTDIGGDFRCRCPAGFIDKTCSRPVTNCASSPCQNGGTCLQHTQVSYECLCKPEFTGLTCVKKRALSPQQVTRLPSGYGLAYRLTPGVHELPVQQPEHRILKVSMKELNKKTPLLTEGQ
Put plainly: ELISA, plate coated with long form of DLK1 ECD-mFc (isoform 1), anti-human IgG Fc-HRP, OD450nm. On the procedure: Plates were incubated with DLK1 Abs serially diluted 2-fold starting from 400 ng/ml in 5% BSA/PBS at RT for 1.5 hrs. Mouse anti-human IgG Fc secondary antibody conjugated to HRP (Novus catalog number: NBP1-78623H) at 1:3000 dilution was applied to each well at 50 μl/well and further incubated at RT for 1 hr. The ELISA was developed first with Thermo Scientific Pierce 1-Step™ Ultra TMB-ELISA substrate solution and then with addition of sulfuric acid stop solution. The ELISA plate was read on a plate reader at 450 nm.
In general terms: In an ELISA, binding on a coated surface is turned into a signal by an enzyme label.

For assay [8], the target named is T5, human DLK1 long form (isoform 1, DLK1-FL) fused to mGFP, overexpressed on HEK293T cells (human, UniProt P80370 24-383).
T5 construct: also called HEK293T DLK1 mGFP G06 (long form); DLK-FL; not shown: mGFP fluorescent protein fused to DLK1
T5 sequence: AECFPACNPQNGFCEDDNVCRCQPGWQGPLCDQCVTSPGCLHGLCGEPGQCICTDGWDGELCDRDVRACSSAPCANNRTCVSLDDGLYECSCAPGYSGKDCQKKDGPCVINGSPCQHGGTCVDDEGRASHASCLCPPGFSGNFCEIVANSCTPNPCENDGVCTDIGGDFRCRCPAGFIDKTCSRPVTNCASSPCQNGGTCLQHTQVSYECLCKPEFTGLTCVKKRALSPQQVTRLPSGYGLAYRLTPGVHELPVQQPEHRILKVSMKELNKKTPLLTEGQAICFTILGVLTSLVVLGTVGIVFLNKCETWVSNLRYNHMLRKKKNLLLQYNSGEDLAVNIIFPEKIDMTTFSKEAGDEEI
Put plainly: KinExA on HEK293T DLK1mGFP Human Clone G06 cells detached by Versene; Error% 3.83; 95% CI 0.455nM - 2.19nM; equilibrium curves 500pM, 20nM.

B1: humanized anti-DLK1 antibody 04-0547-h2 (IgG1) (antibody, V domains shown)
VH: EVQLVESGGGLVQPGGSLRLSCAASGFSISDYYMAWVRQAPGKGLEWVANINYDGTNTYYADSVKGRFTISRDNSKNTLYLQMNSLRAEDTAVYYCVRSYYYYGMEYWGQGTTVTVSS
VL: DIQMTQSPSSLSASVGDRVTITCRASHDVSTAVAWYQQKPGKAPKLLIYSASYRYTGVPSRFSGSGSGTDFTLTISSLQPEDFATYYCQQHYRIPLTFGQGTKLEIK
notes: human kappa (P01834) and human IgG1 (P01857) constant regions
The Kd is a measure of binding affinity in units of concentration. Higher therefore signals a looser complex. In the case of B1, the Kd in assay [1] was 8.2 nM; in assay [2] it was 5 to 9 nM; in assay [3], 5.96 nM; in assay [4] it was 13 nM.

B2: humanized anti-DLK1 antibody 04-0561-F1 (IgG1) (antibody, V domains shown)
VH: QVQLQESGPGLVKPSETLSLTCTVSGFSLSIYSVHWVRQPPGKGLEWIGLIWGGGSTDYNPSLKSRVTISKDTSKNQVSLKLSSVTAADTAVYYCARKEGNYLWFAYWGQGTLVTVSS
VL: DIVMTQSPDSLAVSLGERVTMNCKSSQSLLQSSNQKNYLAWYQQKPGQPPKLLVYFASTRESGVPDRFSGSGSGTDFTLTISSVQAEDVAVYYCQQHYSIPLTFGQGTKLEIKR
A word on the EC50: it is the concentration giving half of the maximal effect. Higher therefore signals a need for much substance. Take B2: the “ADCC reporter assay: NFAT activation (Lucia luciferase) in Jurkat-Lucia NFAT-CD16 effector cells, EC50” value in assay [5] is about 0.101 µg/mL. In addition, the binding result in assay [6] is “no binding (tested: 20µg/ml)”. The molecule also had an EC50 in assay [7] of 0.87 nM. Moreover, the Kd in assay [8] stood at 1.11 nM.
